Measured values reported in patent publication US20120014957A1 (AbbVie / Abbott, published 2012).

B1: DVD1352 (bispecific antibody, human IgG1, kappa)
heavy: not shown
light: DIQMTQSPSSLSASVGDRVTITCRASQSISSYLAWYQQKPGKAPKLLIYGASSRASGVPSRFSGSGSGTDFTLTISSLQPEDFATYYCQQYMSVPITFGQGTKVEIKRTVAAPDIQMTQSPSSLSASVGDRVTITCRASEDIYNALAWYQQKPGKAPKLLIYNTDTLHTGVPSRFSGSGSGTDYTLTISSLQPEDFATYFCQHYFHYPRTFGQGTKVEIKRTVAAPSVFIFPPSDEQLKSGTASVVCLLNNFYPREAKVQWKVDNALQSGNSQESVTEQDSKDSTYSLSSTLTLSKADYEKHKVYACEVTHQGLSSPVTKSFNRGEC
notes: DVD-Ig; also called DVD1352H; DVD1352L
B2: AB016 (antibody, V domains shown)
VH: EVQLVESGGGLVQPGGSLRLSCAASGFSFSSEPISWVRQAPGKGLEWVSSITGKNGYTYYADSVKGRFTISADTSKNTAYLQMNSLRAEDTAVYYCARWGKKVYGMDVWGQGTLVTVSS
VL: DIQMTQSPSSLSASVGDRVTITCRASQSISSYLAWYQQKPGKAPKLLIYGASSRASGVPSRFSGSGSGTDFTLTISSLQPEDFATYYCQQYMSVPITFGQGTKVEIKR
notes: Parent antibody; also called NRP1

Legend:
[1] = target: Recombinant Human β-NGF (human, UniProt P01138 122-241); assay: cell-based or functional assay
[2] = target: T1, NRP1 on cells (UniProt O14786 22-923, limits assumed); assay: flow cytometry on cells, DVD-Ig at 2 ug/mL
T1 construct: whole, on cells
Method: (§1) Stable cell lines overexpressing a cell-surface antigen of interest or human tumor cell lines were harvested from tissue culture flasks and resuspended in phosphate buffered saline (PBS) containing 5% fetal bovine serum (PBS/FBS). Prior to staining, human tumor cells were incubated on ice with (100 μl) human IgG at 5 μg/ml in PBS/FCS. 1−5×10⁵ cells were incubated with antibody or DVD-Ig (2 μg/mL) in PBS/FBS for 30-60 minutes on ice. Cells were washed twice and 100 μl of F(ab′)2 goat anti human IgG, Fcγ-phycoerythrin (1:200 dilution in PBS) (Jackson ImmunoResearch, West Grove, Pa., Cat. #109-116-170) was added. After a 30 minute incubation on ice, cells were washed twice and resuspended in PBS/FBS. Fluorescence was measured using a Becton Dickinson FACSCalibur (Becton Dickinson, San Jose, Calif.).
(§2) The geometric mean is the n root of the multiplication product of n fluorescent signals (a1×a2×a3 . . . an). With log-transformed data the geometric mean is used to normalize the weighting of the data distribution.

[3] = target: T1, NRP1 on cells; assay: flow cytometry on cells, antibody at 2 ug/mL
Method: as §1, §2

Binder | C-Terminal VD NGF Inhibition Assay EC50 [1] [pM] | FACS Geometric Mean N-terminal [2] | FACS Geometric Mean [3]
B1 | 226 | 42 | –
B2 | – | – | 338
